To fix the notation:
B1: 393E9_hVH1_hVL5 (antibody, V domains shown)
VH: EVQLVESGGGLVQPGGSLRLSCAASGFTFTDYYMSWVRQAPGKGLEWVGFIRNKGNGYTTENSASVKGRFTISRDNSKSTLYLQMNSLRAEDTAVYYCARYRGNPHYAMDYWGQGTLVTVSS
VL: EIVLTQSPGTLSLSPGERATLSCRASESVEFYGTSFLQWYQQKPGQAPRLLIYGASNVESGIPDRFSGSGSGTDFTLTISRLEPEDIAVYFCQQSRKVPSTFGGGTKVEIK
notes: humanized
B2: 393E9_hVH1_hVL4 (antibody, V domains shown)
VH: B1 VH
VL: DIVLTQSPLSLPVTPGEPASISCRASESVEFYGTSFLQWYLQKPGQSPQLLIYGASNVESGVPDRFSGSGSGTDFTLKISRVEAEDIGVYFCQQSRKVPSTFGGGTKVEIK
notes: humanized
B3: 393E9_hVH2_hVL5 (antibody, V domains shown)
VH: B1 VH with V12I, A40P
VL: B1 VL
notes: humanized
B4: 393E9_hVH5_hVL3 (antibody, V domains shown)
VH: B1 VH with G16R, A23T, T80I, R89K, A90T
VL: DIQLTQSPSSLSASVGDRVTITCRASESVEFYGTSFLQWYQQKPGKAPKLLIYGASNVESGVPSRFSGSGSGTDFTLTISSLQPEDIATYFCQQSRKVPSTFGGGTKVEIK
notes: humanized; also called Hu393E9-53
B5: 393E9_hVH5_hVL5 (antibody, V domains shown)
VH: B1 VH with G16R, A23T, T80I, R89K, A90T
VL: B1 VL
notes: humanized
B6: 393E9_hVH4_hVL2 (antibody, V domains shown)
VH: B1 VH with T80S, R89K, A90T
VL: B1 VL with G9A, L13V, D64A, D74E, R81S, E83Q, P84S
notes: humanized
B7: 393E9_hVH2_hVL3 (antibody, V domains shown)
VH: B1 VH with V12I, A40P
VL: B4 VL
notes: humanized
B8: 393E9_hVH6_hVL2 (antibody, V domains shown)
VH: B1 VH with S77A, T80S
VL: B1 VL with G9A, L13V, D64A, D74E, R81S, E83Q, P84S
notes: humanized; also called Hu393E9-62
B9: 393E9_hVH2_hVL2 (antibody, V domains shown)
VH: B1 VH with V12I, A40P
VL: B1 VL with G9A, L13V, D64A, D74E, R81S, E83Q, P84S
notes: humanized
B10: 393E9_hVH3_hVL5 (antibody, V domains shown)
VH: B1 VH with E1Q, L11V
VL: B1 VL
notes: humanized
B11: 393E9_hVH3_hVL4 (antibody, V domains shown)
VH: B1 VH with E1Q, L11V
VL: B2 VL
notes: humanized
B12: 393E9_hVH4_hVL5 (antibody, V domains shown)
VH: B1 VH with T80S, R89K, A90T
VL: B1 VL
notes: humanized; also called Hu393E9-45
B13: 393E9_hVH3_hVL3 (antibody, V domains shown)
VH: B1 VH with E1Q, L11V
VL: B4 VL
notes: humanized
B14: 393E9_hVH6_hVL5 (antibody, V domains shown)
VH: B1 VH with S77A, T80S
VL: B1 VL
notes: humanized
B15: 393E9_hVH4_hVL3 (antibody, V domains shown)
VH: B1 VH with T80S, R89K, A90T
VL: B4 VL
notes: humanized
B16: 393E9_hVH2_hVL4 (antibody, V domains shown)
VH: B1 VH with V12I, A40P
VL: B2 VL
notes: humanized
B17: 393E9_hVH5_hVL4 (antibody, V domains shown)
VH: B1 VH with G16R, A23T, T80I, R89K, A90T
VL: B2 VL
notes: humanized
B18: 393E9_hVH6_hVL3 (antibody, V domains shown)
VH: B1 VH with S77A, T80S
VL: B4 VL
notes: humanized
B19: Hu286B4-1 (antibody, V domains shown)
VH: EVQLQESGPGLVKPSDTLSLTCAVSGYSISNNYYWNWIRQPPGKGLEWIGYITYDGSNNYNPSLKNRVTMSRDTSKNQFSLKLSSVTAVDTAVYYCARGGGQLRFDYWGQGTTVTVSS
VL: DIQMTQSPSSLSASVGDRVTITCKASQSVSNEVTWYQQKPGKAPKLLIYYASNRYTGVPDRFSGSGSGTDFTFTISSLQPEDIATYYCQQDYSSPWTFGGGTKVEIK
notes: humanized
B20: Hu286B4-7 (antibody, V domains shown)
VH: B19 VH with V68I
VL: B19 VL with L46M
notes: humanized
B21: Hu286B4-4 (antibody, V domains shown)
VH: B19 VH
VL: B19 VL with A43S, L46M, S67Y, Y87F
notes: humanized
B22: Hu286B4-2 (antibody, V domains shown)
VH: B19 VH
VL: B19 VL with L46M
notes: humanized
B23: Hu286B4-9 (antibody, V domains shown)
VH: B19 VH with V68I
VL: B19 VL with A43S, L46M, S67Y, Y87F
notes: humanized
B24: Hu286B4-6 (antibody, V domains shown)
VH: B19 VH with V68I
VL: B19 VL
notes: humanized

Numbering of substitutions follows the chain as printed.

For the first assay, the target named is T1, human 5T4-His protein (human, UniProt Q13641 32-355).
T1 construct: also called recombinant 5T4 protein (human 5T4-his tag); human 5T4 protein; not shown: His tag
T1 sequence (looked up): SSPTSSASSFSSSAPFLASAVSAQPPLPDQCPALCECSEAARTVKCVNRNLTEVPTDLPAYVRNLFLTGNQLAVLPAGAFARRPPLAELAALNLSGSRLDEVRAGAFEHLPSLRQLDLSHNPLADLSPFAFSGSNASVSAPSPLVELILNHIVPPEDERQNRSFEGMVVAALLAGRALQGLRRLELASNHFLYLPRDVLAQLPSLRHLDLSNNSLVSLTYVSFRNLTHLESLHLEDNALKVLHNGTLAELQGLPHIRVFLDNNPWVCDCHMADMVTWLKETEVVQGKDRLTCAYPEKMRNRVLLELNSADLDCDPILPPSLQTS
The experiment in a line: SPR Biacore, Protein A capture. The procedure:
The binding of the 393E9 humanized antibodies to recombinant 5T4 protein (human 5T4-his tag) was tested with Biacore using a capture method. The mAbs were captured using Protein A chip. A serial dilution of human 5T4-his tag protein was injected over captured antibody for 3 mins at a flow rate of 30 μl/min. The antigen was allowed to dissociate for 280-800 s. All the experiments were carried out on a Biacore T200. Data analysis was carried out using the Biacore T200 evaluation software.
(In SPR one partner is held on a chip, and binding of the other changes the refractive index at the surface.)
Usually Kd stands for the equilibrium constant for the complex coming apart. Lower therefore signals a tighter complex. What is called koff is the first-order rate constant of dissociation. Lower therefore signals slow dissociation. The kon is a measure of how fast the partners come together. High values mean faster complex formation, low ones slower complex formation. For the molecule B1, the affinity, expressed as Kd, was 0.515 nM; the koff stood at 0.000112 s⁻¹; the kon came out at 217000 M⁻¹ s⁻¹.
The like results for B2 were, in that order, 0.599 nM, 0.000119 s⁻¹ and 199000 M⁻¹ s⁻¹.
On to B3, for which the affinity, expressed as Kd, was 0.56 nM; the koff stood at 0.000122 s⁻¹; the kon was determined as 217000 M⁻¹ s⁻¹.
The like results for B4 were, in that order, 0.7 nM, 0.000119 s⁻¹ and 170000 M⁻¹ s⁻¹.
The like results for B5 were, in that order, 0.598 nM, 0.000121 s⁻¹ and 202000 M⁻¹ s⁻¹.
B6 gave a Kd of 0.603 nM, a koff of 0.000123 s⁻¹ and an on-rate constant (kon) of 204000 M⁻¹ s⁻¹.
Regarding B7, the Kd stood at 0.684 nM, the koff amounted to 0.00012 s⁻¹ and the kon is 174000 M⁻¹ s⁻¹.
Consider B8, for which binding was characterised by a dissociation constant (Kd) of 0.687 nM, the koff turned out to be 0.000137 s⁻¹ and the kon is 199000 M⁻¹ s⁻¹.
B9 had a Kd of 0.594 nM, a koff of 0.00012 s⁻¹ and a kon of 201000 M⁻¹ s⁻¹.
On to B10, for which the Kd was 0.502 nM, the koff stood at 0.00012 s⁻¹ and the kon is 238000 M⁻¹ s⁻¹.
As for B11, binding was put at a Kd of 0.573 nM, the koff stood at 0.000123 s⁻¹ and the kon was determined as 215000 M⁻¹ s⁻¹.
The like results for B12 were, in that order, 0.595 nM, 0.000129 s⁻¹ and 217000 M⁻¹ s⁻¹.
The like results for B13 were, in that order, 0.574 nM, 0.000111 s⁻¹ and 193000 M⁻¹ s⁻¹.
B14: the Kd was 0.574 nM, the koff was found to be 0.000122 s⁻¹ and the kon worked out at 212000 M⁻¹ s⁻¹.
B15 had a Kd of 0.706 nM, a koff of 0.000128 s⁻¹ and an association rate constant (kon) of 181000 M⁻¹ s⁻¹.
The like results for B16 were, in that order, 0.65 nM, 0.000127 s⁻¹ and 195000 M⁻¹ s⁻¹.
The like results for B17 were, in that order, 0.679 nM, 0.000125 s⁻¹ and 184000 M⁻¹ s⁻¹.
The like results for B18 were, in that order, 0.691 nM, 0.000124 s⁻¹ and 179000 M⁻¹ s⁻¹.

The next assay deals with T1, human 5T4-His protein. The experiment in a line: ELISA, coated 5T4-His. The procedure:
To evaluate the binding activity of clones, the 286B4 chimeric antibody along with 286B4 humanized mAbs were subjected to ELISA test.
Briefly, microtiter plates were coated with human 5T4-His protein at 1 μg/ml in PBS, 100 μl/well at 4° C. overnight, then blocked with 150 μl/well of 1% BSA. 4-fold dilutions of tested antibodies starting from 20 nM were added to each well and incubated for 1 hour at 37° C. The plates were washed with PBS/Tween and then incubated with Goat Anti-Human IgG-HRP for 30 mins at 37° C. After washing, the plates were developed with TMB substrate and analyzed by spectrophotometer at OD 450 nm. As shown in FIG. 16 and Table 15, most of the humanized clones bound to human 5T4 with high potency.
On the technique in general: An ELISA detects its analyte on a solid surface through an enzyme-linked reagent.
Usually EC50 stands for the concentration at which the effect is half-maximal. Molecule B19 yielded an EC50 of 3.81 nM.
As for B20, the EC50 stood at 1.76 nM.
Take B21: a half-maximal effect (EC50) was put at 0.46 nM.
Molecule B22 returned an EC50 of 1.35 nM.
Same read-out and setting: the result for B23 reads 0.33 nM.
The same measure, in the same setting: the figure for B24 is 2.64 nM.

The next assay deals with T1, human 5T4-His protein. Nature of the assay: ELISA, coated 5T4-His. The source holds these as a separate data set. The procedure: To evaluate the binding activity of 393E9 humanized antibodies to human 5T4, the 393E9 chimeric antibody (393E9-C) along with 393E9 humanized mAbs were subjected to ELISA test.
Briefly, microtiter plates were coated with human 5T4-His protein at 1 μg/ml in PBS, 100 μl/well at 4° C. overnight, then blocked with 150 μl/well of 1% BSA. 4-fold dilutions of antibodies starting from 20 nM were added to each well and incubated for 1 hour at 37° C. The plates were washed with PBS/Tween and then incubated with Goat Anti-Human IgG-HRP for 30 mins at 37° C. After washing, the plates were developed with TMB substrate and analyzed by spectrophotometer at OD 450 nm. As shown in FIG. 12 and Table 9, most of the humanized antibodies bound to human 5T4 with high activity.
The molecule B1 came in with an EC50 of 0.13 nM.
On the same count and under the same terms, the result for B2 reads 0.13 nM; that for B3, 0.11 nM.
B4 registered an EC50 of 0.12 nM.
Regarding B5, the response was half-maximal at 0.11 nM (EC50).
In the case of B6, the EC50 came to 0.12 nM.
Still for that read-out and setting: the figure for B7 is 0.11 nM; for B8 it is 0.11 nM.
In the case of B9, it took 0.12 nM to reach a half-maximal effect (EC50).
On the same count and under the same terms, the figure for B10 is 0.12 nM; for B11 it is 0.095 nM.
For B12, a half-maximal response (EC50) required 0.22 nM.
With B13, the EC50 is 0.14 nM. Against the preceding molecule, the EC50 is about 1.6-fold lower.
Same read-out and setting: the figure for B14 is 0.19 nM; for B15 it is 0.13 nM; for B16 it is 0.12 nM.
Take B17: the response was half-maximal at 0.17 nM (EC50). This EC50 and that of the molecule before are within 1.5-fold of each other.
Same read-out and setting: the figure for B18 is 0.052 nM.

These data come from patent US20250154277A1 (CONCEPT TO MEDICINE BIOTECH, published 2025).
